# Assay: yeast display, Sf9 membrane polyspecificity reagent, FACS + sequencing; frameworks hold sequencing errors
# How it was run: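 After 36–48 hours of galactose induction, yeast (Saccharomyces cerevisiae BJ5465) displaying a synthetic nanobody library were stained at 4 °C for 1 hour with 10% biotinylated, detergent-solubilized Sf9 membrane reagent. Streptavidin microbeads enriched the stained cells before FACS sorting into low and high (top ~1%) gates on anti-HA and streptavidin fluorescence. Each clone's polyreactivity label reflects its gate of origin.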
row,Sequence,polyreactivity (PSR sort gate)
1,QVQLVESGGGLVQAGGSLRLSCAASGSTLGYYTMGWYRQAPGKERELVAAIDWSGGSTYYADSVKGRFTISRDNAKNTVYLQMNSLKPEDTAVYYCAVDYTYSYVDYWSEYDYWGQGTQVTVSS,low polyreactivity
2,QVQLVESGGGLVQAGGSLRLSCAASGSTLHSYAMGWYRQAPGKERELVAAISFRGGSTYADSVKGRFTISRDNAKNTVYLQMNSLKPEDTAVYYCAAYSLYTMYWGQGTQVTVSS,low polyreactivity
3,QVQLVESGGGLVQAGGSLRLSCAASGSTLIFYAMGWYRQAPGKERELVAAIRFSGGTTYYADSVKGRFTISRDNAKNTVYLQMNSLKPEDTAVYDCAADPRPAYGYYYLYADFDYWGLGTQVTVSS,low polyreactivity
4,QVQLVESGGGLVQAGGSLRLSCAASGSTLIGYAMGWYRQAPGKERELVAVINRSGGRTYYADSVKGRFTISRDNSKNTVYLQMNSLKPEDTAVYYCAARPTALSYDSWGQGTQVTVSS,high polyreactivity
5,QVQLVESGGGLVQAGGSLRLSCAASGSTLKLYVMGWYRQAPGKERELVAAISYSGGSTNYADSVKGRFTISRDNAKNTVYLQMNSLKPEDTAVYYCAAAGYKWYYKYYYWGQGTQVTVSS,high polyreactivity
6,QVQLVESGGGLVQAGGSLRLSCAASGSTLKSNVMGWYRQAPGKERELVAAISSSGGSTSYADSVKGRFTISRDNAKNTVYLLMKSLNPEDTAVYYCAARMGRYFWNSGVDYWGQGTQVTVSS,high polyreactivity
7,QVQLVESGGGLVQAGGSLRLSCAASGSTLLGYTMGWYRQAPGKERELVAVISWSGGGTYYADSVKGRFTISRDNAKNTVYLQMNSLKPEDTAVYYCAAETVLGYWYYRKYYYWGQGTQVTVSS,high polyreactivity
8,QVQLVESGGGLVQAGGSLRLSCAASGSTLLSYTMGWYRQAPGKERELVASITTSGGSTYYADSVKGRFTISRDNAKNTVYLQMNSLKPEDTAVYYWGQGTQVTVSS,low polyreactivity
9,QVQLVESGGGLVQAGGSLRLSCAASGSTLLTYTMGWYRQAPGKERELVASITTSARSTYYADSVKGRFTISRDNAKNTVYLQMNSLKPEDTAVYYWGQGTQVTVSS,low polyreactivity
10,QVQLVESGGGLVQAGGSLRLSCAASGSTLNRYAMGWYRQAPGKERELVAAISISGGRTYYADSVKGRFTISRDNAKNTVYLQMNSLKPEDTAVYYCAADQYYYRYIRTSKYDYWGQGTQVTVSS,high polyreactivity
11,QVQLVESGGGLVQAGGSLRLSCAASGSTLNSYVMGWYRQAPGKERELVATIRSGSSTNYADSVKGRFTISRDNAKNTVYLQMNSLKPEDTAVYDCAADAYSLCYDSWGQGTQVTVSS,low polyreactivity
12,QVQLVESGGGLVQAGGSLRLSCAASGSTLNYNAMGWYRQAPGKERELVAAISWSGGSTYYADSVKGRFTISRDNAKNTVYLQMNSLKPEDTAVYYCAADQSTVLDVGSWGQGTQVTGSS,low polyreactivity
13,QVQLVESGGGLVQAGGSLRLSCAASGSTLNYYAMGWYRQAPGKERELVAAITWSGGSTSYADSVKGRFTISRDNAKNTVYLPMNSLKRDDTAVYYCATDFPTVQLYETDWLSSDMGYWGQGTQVNVSS,low polyreactivity
14,QVQLVESGGGLVQAGGSLRLSCAASGSTLPANAMGWYRQAPGKERELVAAITITTDGSTYYADSVKGRFTISRDNAKNTVYLQMNSLKAEDTAVYYCAVARYRYHIRKMGYWGQGTQVTVSS,low polyreactivity
15,QVQLVESGGGLVQAGGSLRLSCAASGSTLPGNVMGWYRQAPGKERELVAAISKRGASTYYADSVKGRFTISRDNAKNNVYLQTPRLKPEDSAVYYCASRTRGSVVRFDYWGQGTQVTVSS,high polyreactivity
16,QVQLVESGGGLVQAGGSLRLSCAASGSTLPSYAMGWYRQAPGKERELVAAISSSGGRTYYADSVKGRFTISRDNAKNTVYLQMNSLKPEDTAVYYCAALSVANYHGTDSGYWGQGTQVTVSS,high polyreactivity
17,QVQLVESGGGLVQAGGSLRLSCAASGSTLPTNAMGWYRQAPGKEREFVAAISDNGGSTYYADSVKGRFTISRDNAKNTVYLQMNSLKPEDTAVYYCAADNFAPEFYYWGQGTQVTVSS,low polyreactivity
18,QVQLVESGGGLVQAGGSLRLSCAASGSTLPYNAMGWYRQAPGKERELVAAISKSGGRTYYADSVKGRFTISRDNAKNTVYLQMNSLKPEDTAVYYCNAGPYRGGGGSSRYYWGQGTQVTVSS,high polyreactivity
19,QVQLVESGGGLVQAGGSLRLSCAASGSTLPYYAMGWYRQAPGKERELVADITARGGTYYADSVKGRFTISRDNAKNTVYLQMNSLKPEDTAVYYCAAEDYWSPGYDYWGQGTQVTVSS,high polyreactivity
20,QVQLVESGGGLVQAGGSLRLSCAASGSTLRGNAMGWYRQAPGKERELVAAISWSGGITYYADSVKGRFTISRDNAKNTVYLQMNSLKPEDTAVYYCAVDRPRGGPTKYERRTKHGYWGQGTQVTVSS,low polyreactivity
21,QVQLVESGGGLVQAGGSLRLSCAASGSTLRGYAMGWYRQAPGEERELVAAISRRGSGTYYADSVKGRFTISRDNAKHTVYLQMNSLKPEETAVYYCNAVNGDYEFGYWGQGTQVTVSS,high polyreactivity

row,Sequence,polyreactivity (PSR sort gate)
1,QVQLVESGGGLVQAGGSLRLSCAASGSTLRGYAMGWYRQAPGKEMELVAAITRSGGSTYYADSVKGRFTISRDNAKNTVYLQMNSLKPEDTAVYYCNARAFPYYRRFDYWGQGTQVTVSS,high polyreactivity
2,QVQLVESGGGLVQAGGSLRLSCAASGSTLRGYVMGWYRQAPGTERELVAAITQRAGSTYYADSVKGRFTISRDNAKNTVYLQMNSLKPEDTAVYYCRRFYFGKYDYWGQGTQVTVSS,high polyreactivity
3,QVQLVESGGGLVQAGGSLRLSCAASGSTLRYYAMGWYRQAPGKEREFVAAISWRGGSTYYADSVKGRFTISRDNAKNTVYLQMNSLKPEDTAVYYCAAKALYAYRLYDYWGQGTQVTVSS,high polyreactivity
4,QVQLVESGGGLVQAGGSLRLSCAASGSTLRYYAMGWYRQAPGKERELVAAISTGGSTYYADSVKVRFTISRDNAKNTVYLQMNSLKAEDTAVYYCAAEKKTKTYRYDYWGQGTQVTVSS,low polyreactivity
5,QVQLVESGGGLVQAGGSLRLSCAASGSTLRYYAMGWYRQAPGKERELVAAITYSAGRTSYADSVKGRFTISRDNAKNTVYLQMNSLKPEDTAVYYCATQWHSYLRRYDYWGQGTQVTVSS,low polyreactivity
6,QVQLVESGGGLVQAGGSLRLSCAASGSTLRYYAMGWYRQAPGKETEFVAAITASGVTTYYADSVKGRFTISRDNAKNTVYLQMNSLKPEDTAVYYCAARLYYNYRDRYNYWGQGTQVTVSS,high polyreactivity
7,QVQLVESGGGLVQAGGSLRLSCAASGSTLSLYAMGWYRQAPGKERELVAAITSSGGTYYADSVKGRFTISRDNAKNTVYLQMNGLKPEDTAVYYCAAQSYSRMDYWGQGTQVTVSS,high polyreactivity
8,QVQLVESGGGLVQAGGSLRLSCAASGSTLSLYAMGWYRQAPGKERELVAAITSSGGTYYADSVKGRFTISRDNAKNTVYLQMNSLKPEDTAVYYCNAYAKDARSYGYHRVNYWGQGTQVTVSS,high polyreactivity
9,QVQLVESGGGLVQAGGSLRLSCAASGSTLSTYVMGWYRQAPGKERELVAAITRRGGITYYADSVKGRFTISRDNAKNTVYLQMNSLKPEDTAVYYCNRLRYPHTFQTGGYWGQGTQVTVSS,high polyreactivity
10,QVQLVESGGGLVQAGGSLRLSCAASGSTLTWNDMGWYRPAPGKERELVAAIDVNDGSTYYADSVKGRFTISRDNAKNTVYLQMNSLKPEDTAVYYCAEPTDYTWLDSTLADDYWGQGTQVTVSS,low polyreactivity
11,QVQLVESGGGLVQAGGSLRLSCAASGSTLTYYAMGWYRQAPGKERELVAAISVSGGRTYYADSVKGRFTISRDNAKYTVYLQMNSLKPEDTAVYYCNALSSRAGGRGYDYWGQGTHVTVSS,high polyreactivity
12,QVQLVESGGGLVQAGGSLRLSCAASGSTLVIYAMGWYRQAPGKEREFVAAIRWSTGRTYYADSVKGRFTISRDNAKNTVYLQMNSLKPEDTAVYYCNASYWAPNSLPDGFRYDSWGQGTQVTVSS,high polyreactivity
13,QVQLVESGGGLVQAGGSLRLSCAASGSTLVKYAMGWYRQAPGKERELVAAISWSGGRTYYADSVKGRFTISRDNAKNTVYLQMNSLKPEDTAVYYCNAEFRGRPPSFAIKYDYWGQGTQVTVSS,high polyreactivity
14,QVQLVESGGGLVQAGGSLRLSCAASGSTLVLNAMGWYRPATGKERELVAAITISGDTTYYADSVKGRFTISRDNAKNTVYLQMNCLKPEDTAVYYCAAVVSTVDCMEYWGQGTQVTVSS,low polyreactivity
15,QVQLVESGGGLVQAGGSLRLSCAASGSTLVRYAMGWYRQAPGKERELVASISYSGGSTHYADSVKGRFTISRDNAKNTVYLQMNSLKPEDTAVYYCAARRYYSWGGHYYWGQGTQVTVSS,high polyreactivity
16,QVQLVESGGGLVQAGGSLRLSCAASGSTLVTNSMGWYRKAPGKERELVAAITFSGGTTYYADSVKGRFTISLDNAKNTVYLQMNSLKPEDTAVYYCAAEIWLEYVGYDYCGQGTQVTVSS,high polyreactivity
17,QVQLVESGGGLVQAGGSLRLSCAASGSTLVYYDMGWYRKAPGKERELVATITGTDSTYYADSVKGRFTISRDNAKNTVYLQMNSLKPEDTADCAADRAASRPDYDYWGQGTQVTVSS,low polyreactivity
18,QVQLVESGGGLVQAGGSLRLSCAASGSTLWYNAMGWYRQAPGKERELVATITAGGGSTYYADSVKGRFTISRDNAKNTVYLQMNSLKPEDTAVYYCATRRSRGPWYRNAYDYWGQGTQVTVSS,low polyreactivity
19,QVQLVESGGGLVQAGGSLRLSCAASGSTLYAYAMGWYRQAPGKERELVAAISFSTTSTYYADSVKGRFTISRDNAKNTVYLQMNSLKPEVTAVYYCAAEYWYYWEYEYWGQGTQVTVSS,high polyreactivity
20,QVQLVESGGGLVQAGGSLRLSCAASGSTLYAYAMGWYRQAPGKERELVAAISSRAVRTYYADSVKGRFTISRDNAKNTVYLQMNSMKPEDTAVYYCAAQRSYAYEYWGQGTQVTVSS,high polyreactivity
